Measured values as given in US20250320281A1.

Columns and labels:
Assay in all cases: cell-based or functional assay
[1] = biological target: HIV-1 Env of isolate MGRM-A-007 (pseudovirus) (HIV-1)
[2] = biological target: HIV-1 Env of isolate 92WR026 (pseudovirus) (HIV-1)
[3] = biological target: HIV-1 Env of isolate MGRM-A-001 (pseudovirus) (HIV-1)
[4] = biological target: HIV-1 Env of isolate 92UG037 (pseudovirus) (HIV-1)
[5] = biological target: HIV-1 Env of isolate MGRM-A-002 (pseudovirus) (HIV-1)
[6] = biological target: HIV-1 Env of isolate MGRM-A-010 (pseudovirus) (HIV-1)
[7] = biological target: HIV-1 Env of isolate 94UG103 (pseudovirus) (HIV-1)
[8] = biological target: HIV-1 Env of isolate 92WR009 (pseudovirus) (HIV-1)
[9] = biological target: HIV-1 Env of isolate MGRM-A-013 (pseudovirus) (HIV-1)
[10] = biological target: HIV-1 Env of isolate MGRM-A-009 (pseudovirus) (HIV-1)
[11] = biological target: HIV-1 Env of isolate MGRM-AE-002 (pseudovirus) (HIV-1)
[12] = biological target: HIV-1 Env of isolate MGRM-A-006 (pseudovirus) (HIV-1)
[13] = biological target: HIV-1 Env of isolate 93UG077 (pseudovirus) (HIV-1)
[14] = biological target: HIV-1 Env of isolate 92TH021 (pseudovirus) (HIV-1)
[15] = biological target: HIV-1 Env of isolate CMU02 (pseudovirus) (HIV-1)
[16] = biological target: HIV-1 Env of isolate MGRM-AE-001 (pseudovirus) (HIV-1)
[17] = biological target: HIV-1 Env of isolate MGRM-A-005 (pseudovirus) (HIV-1)
[18] = biological target: HIV-1 Env of isolate MGRM-AE-003 (pseudovirus) (HIV-1)
[19] = biological target: HIV-1 Env of isolate 92WR020 (pseudovirus) (HIV-1)
[20] = biological target: HIV-1 Env of isolate 92RW008 (pseudovirus) (HIV-1)
[21] = biological target: HIV-1 Env of isolate 92WR021 (pseudovirus) (HIV-1)
[22] = biological target: HIV-1 Env of isolate MGRM-A-003 (pseudovirus) (HIV-1)
[23] = biological target: HIV-1 Env of isolate VLGCA1 (pseudovirus) (HIV-1)
[24] = biological target: HIV-1 Env of isolate MGRM-A-011 (pseudovirus) (HIV-1)
[25] = biological target: HIV-1 Env of isolate 93WR029 (pseudovirus) (HIV-1)
[26] = biological target: HIV-1 Env of isolate MGRM-A-012 (pseudovirus) (HIV-1)
[27] = biological target: HIV-1 Env of isolate MGRM-A-014 (pseudovirus) (HIV-1)
[28] = biological target: HIV-1 Env of isolate 92UG031 (pseudovirus) (HIV-1)
[29] = biological target: HIV-1 Env of isolate 92WR024 (pseudovirus) (HIV-1)
[30] = biological target: HIV-1 Env of isolate 94KE105 (pseudovirus) (HIV-1)
[31] = biological target: HIV-1 Env of isolate MGRM-A-008 (pseudovirus) (HIV-1)
[32] = biological target: HIV-1 Env of isolate MGRM-A-004 (pseudovirus) (HIV-1)
[33] = biological target: HIV-1 APV6 envelope glycoprotein (Env) on pseudovirus (HIV-1)
[34] = biological target: HIV-1 MGRM-C-026 envelope glycoprotein (Env) on pseudovirus (HIV-1)
[35] = biological target: HIV-1 92TH021 envelope glycoprotein (Env) on pseudovirus (HIV-1)
[36] = biological target: HIV-1 CMU02 envelope glycoprotein (Env) on pseudovirus (HIV-1)
[37] = biological target: HIV-1 94UG103 envelope glycoprotein (Env) on pseudovirus (HIV-1)
[38] = biological target: HIV-1 92BR020 envelope glycoprotein (Env) on pseudovirus (HIV-1)
[39] = biological target: HIV-1 MGRM-C-027 envelope glycoprotein (Env) on pseudovirus (HIV-1)
[40] = biological target: HIV-1 MGRM-A-010 envelope glycoprotein (Env) on pseudovirus (HIV-1)
[41] = biological target: HIV-1 92RW020 envelope glycoprotein (Env) on pseudovirus (HIV-1)
[42] = biological target: HIV-1 MGRM-C-028 envelope glycoprotein (Env) on pseudovirus (HIV-1)
[43] = biological target: HIV-1 JRCSF envelope glycoprotein (Env) on pseudovirus (HIV-1) (UniProt P20871)
[44] = biological target: HIV-1 92UG024 envelope glycoprotein (Env) on pseudovirus (HIV-1)
[45] = biological target: HIV-1 APV13 envelope glycoprotein (Env) on pseudovirus (HIV-1)
[46] = biological target: HIV-1 JRFL envelope glycoprotein (Env) on pseudovirus (HIV-1)
[47] = biological target: HIV-1 MGRM-D-001 envelope glycoprotein (Env) on pseudovirus (HIV-1)
[48] = biological target: HIV-1 MGRM-D-018 envelope glycoprotein (Env) on pseudovirus (HIV-1)
[49] = biological target: HIV-1 93IN905 envelope glycoprotein (Env) on pseudovirus (HIV-1)
[50] = biological target: HIV-1 93UG077 envelope glycoprotein (Env) on pseudovirus (HIV-1)
[51] = biological target: HIV-1 APV17 envelope glycoprotein (Env) on pseudovirus (HIV-1)
[52] = biological target: HIV-1 MGRM-AG-005 envelope glycoprotein (Env) on pseudovirus (HIV-1)
[53] = biological target: aMLV envelope on pseudovirus (negative control virus)
[54] = biological target: HIV-1 92UG005 envelope glycoprotein (Env) on pseudovirus (HIV-1)
[55] = biological target: HIV-1 NL43 envelope glycoprotein (Env) on pseudovirus (HIV-1)

B1: PGT-123 (4858_P08) (antibody, V domains shown)
VH: QLHLQESGPGLVKPPETLSLTCSVSGASINDAYWSWIRQSPGKRPEWVGYVHHSGDTNYNPSLKRRVTFSLDTAKNEVSLKLVDLTAADSATYFCARALHGKRIYGIVALGELFTYFYMDVWGKGTAVTVSS
VL: SSMSVSPGETAKISCGKESIGSRAVQWYQQKPGQPPSLIIYNNQDRPAGVPERFSASPDFRPGTTATLTITNVDAEDEADYYCHIYDARGGTNWVFDRGTTLTVL
0.003 µg/mL: IC50 (µg/mL), pseudovirus neutralization [20] | IC50 (µg/mL), pseudovirus neutralization [27]
0.012 µg/mL: IC50 (µg/mL), pseudovirus neutralization [2]
0.192 µg/mL: IC50 (µg/mL), pseudovirus neutralization [26]
0.705 µg/mL: IC50 (µg/mL), pseudovirus neutralization [6]
0.011 µg/mL: IC50 (µg/mL), pseudovirus neutralization [5]
0.002 µg/mL: IC50 (µg/mL), pseudovirus neutralization [19]
> 50 µg/mL: IC50 (µg/mL), pseudovirus neutralization [1] | IC50 (µg/mL), pseudovirus neutralization [3] | IC50 (µg/mL), pseudovirus neutralization [11] | IC50 (µg/mL), pseudovirus neutralization [12] | IC50 (µg/mL), pseudovirus neutralization [14] | IC50 (µg/mL), pseudovirus neutralization [15] | IC50 (µg/mL), pseudovirus neutralization [16] | IC50 (µg/mL), pseudovirus neutralization [17] | IC50 (µg/mL), pseudovirus neutralization [18] | IC50 (µg/mL), pseudovirus neutralization [23] | IC50 (µg/mL), pseudovirus neutralization [24] | IC50 (µg/mL), pseudovirus neutralization [25] | IC50 (µg/mL), pseudovirus neutralization [28] | IC50 (µg/mL), pseudovirus neutralization [29] | IC50 (µg/mL), pseudovirus neutralization [31] | IC50 (µg/mL), pseudovirus neutralization [32]
0.028 µg/mL: IC50 (µg/mL), pseudovirus neutralization [13]
0.023 µg/mL: IC50 (µg/mL), pseudovirus neutralization [4]
0.005 µg/mL: IC50 (µg/mL), pseudovirus neutralization [21]
15.7 µg/mL: IC50 (µg/mL), pseudovirus neutralization [8]
0.024 µg/mL: IC50 (µg/mL), pseudovirus neutralization [30]
0.495 µg/mL: IC50 (µg/mL), pseudovirus neutralization [22]
0.565 µg/mL: IC50 (µg/mL), pseudovirus neutralization [9]
0.004 µg/mL: IC50 (µg/mL), pseudovirus neutralization [10]
0.678 µg/mL: IC50 (µg/mL), pseudovirus neutralization [7]

B2: PGT-136 (5329_C19; 5366_P21) human monoclonal anti-HIV-1 antibody (antibody, V domains shown)
VH: QLQLQESGPGLVKPSETLSLTCTVSGGSMRGTDWGENDFHYGWIRQSSAKGLEWIGSIHWRGRTTHYKTSFRSRATLSIDTSNNRFSLTFSFVTAADTAVYYCARHKYHDIFRVVPVAGWFDPWGQGLLVTVSS
VL: EIVMTQSPPTLSVSPGETATLSCRASQNVKNNLAWYQLKPGQAPRLLIFDASSRAGGIPDRFSGSGYGTDFTLTVNSVQSEDFGDYFCQQYEEWPRTFGQGTKVDIK
0.0285 µg/mL: neutralization IC80 [34]
0.0065 µg/mL: neutralization IC50 [34]
0.738 µg/mL: neutralization IC50 [41]
0.156 µg/mL: neutralization IC90 [49]
0.0135 µg/mL: neutralization IC50 [49]
0.379 µg/mL: neutralization IC95 [49]
0.0687 µg/mL: neutralization IC90 [34]
0.159 µg/mL: neutralization IC95 [34]
0.0623 µg/mL: neutralization IC80 [49]
1.96 µg/mL: neutralization IC90 [44]
> 10 µg/mL: neutralization IC50 [33] | neutralization IC80 [33] | neutralization IC90 [33] | neutralization IC95 [33] | neutralization IC50 [35] | neutralization IC80 [35] | neutralization IC90 [35] | neutralization IC95 [35] | neutralization IC50 [36] | neutralization IC80 [36] | neutralization IC90 [36] | neutralization IC95 [36] | neutralization IC50 [37] | neutralization IC80 [37] | neutralization IC90 [37] | neutralization IC95 [37] | neutralization IC50 [38] | neutralization IC80 [38] | neutralization IC90 [38] | neutralization IC95 [38] | neutralization IC50 [39] | neutralization IC80 [39] | neutralization IC90 [39] | neutralization IC95 [39] | neutralization IC50 [40] | neutralization IC80 [40] | neutralization IC90 [40] | neutralization IC95 [40] | neutralization IC80 [41] | neutralization IC90 [41] | neutralization IC95 [41] | neutralization IC50 [42] | neutralization IC80 [42] | neutralization IC90 [42] | neutralization IC95 [42] | neutralization IC50 [43] | neutralization IC80 [43] | neutralization IC90 [43] | neutralization IC95 [43] | neutralization IC50 [45] | neutralization IC80 [45] | neutralization IC90 [45] | neutralization IC95 [45] | neutralization IC50 [46] | neutralization IC80 [46] | neutralization IC90 [46] | neutralization IC95 [46] | neutralization IC50 [47] | neutralization IC80 [47] | neutralization IC90 [47] | neutralization IC95 [47] | neutralization IC50 [48] | neutralization IC80 [48] | neutralization IC90 [48] | neutralization IC95 [48] | neutralization IC50 [50] | neutralization IC80 [50] | neutralization IC90 [50] | neutralization IC95 [50] | neutralization IC50 [51] | neutralization IC80 [51] | neutralization IC90 [51] | neutralization IC95 [51] | neutralization IC50 [52] | neutralization IC80 [52] | neutralization IC90 [52] | neutralization IC95 [52] | neutralization IC50 [53] | neutralization IC80 [53] | neutralization IC90 [53] | neutralization IC95 [53] | neutralization IC50 [54] | neutralization IC80 [54] | neutralization IC90 [54] | neutralization IC95 [54] | neutralization IC50 [55] | neutralization IC80 [55] | neutralization IC90 [55] | neutralization IC95 [55]
5.97 µg/mL: neutralization IC95 [44]
0.0915 µg/mL: neutralization IC50 [44]
0.619 µg/mL: neutralization IC80 [44]
